From article PMC3794980

Experiments:
[1] = target: HLA-A2:Ig fusion protein; assay: fluorescence polarisation
[2] = target: HLA class II molecule DRB1*1501 (human (endogenous in EBV transformed homozygous cell lines)); assay: radioligand binding
[3] = target: HLA-DR DRB1*1302 (human (endogenous in EBV transformed cell lines)); assay: radioligand binding
[4] = target: HLA-DR DRB5*0101 (human (endogenous in EBV transformed cell lines)); assay: radioligand binding
[5] = target: HLA-DR DRB1*0101 (human (endogenous in EBV transformed cell lines)); assay: radioligand binding
[6] = target: HLA-DR DRB1*0802 (human (endogenous in EBV transformed cell lines)); assay: radioligand binding
[7] = target: HLA-DR DRB1*0701 (human (endogenous in EBV transformed cell lines)); assay: radioligand binding
[8] = target: HLA-DR DRB4*0101 (human (endogenous in EBV transformed cell lines)); assay: radioligand binding
[9] = target: HLA-DR DRB1*0901 (human (endogenous in EBV transformed cell lines)); assay: radioligand binding
[10] = target: HLA-DR DRB1*0404 (human (endogenous in EBV transformed cell lines)); assay: radioligand binding
[11] = target: HLA-DR DRB1*0405 (human (endogenous in EBV transformed cell lines)); assay: radioligand binding
[12] = target: HLA-DR DRB1*0401 (human (endogenous in EBV transformed cell lines)); assay: radioligand binding
[13] = target: HLA-DR DRB1*1501 (human (endogenous in EBV transformed cell lines)); assay: radioligand binding
[14] = target: HLA-DR DRB1*1101 (human (endogenous in EBV transformed cell lines)); assay: radioligand binding
[15] = target: HLA-DR DRB1*0301 (human (endogenous in EBV transformed cell lines)); assay: radioligand binding
[16] = target: HLA-DR DRB3*0101 (human (endogenous in EBV transformed cell lines)); assay: radioligand binding

Substance: DENV3 Env_(106–114) (peptide)
- IC50 [1]: 2.9 nM

Substance: DENV3 Env_(126–140) (peptide)
- IC50 [2]: < 20 nM

Substance: DENV3 Env_(231–245) (peptide)
- IC50 [2]: < 20 nM

Substance: DENV3 Envelope 41-55 (peptide)
- IC50 [3]: 27.2 nM
- IC50 [4]: 684 nM
- IC50 [5]: 2.33 nM
- IC50 [6]: 5.08 nM
- IC50 [7]: 3.13 nM
- IC50 [8]: 6.51 nM
- IC50 [9]: 132 nM

Substance: DENV3 Envelope 156-170 (peptide)
- IC50 [10]: 444 nM
- IC50 [11]: 45.5 nM
- IC50 [5]: 463 nM
- IC50 [8]: 707 nM
- IC50 [12]: 7.66 nM

Substance: DENV3 Envelope 161-175 (peptide)
- IC50 [11]: 691 nM
- IC50 [3]: 68.3 nM
- IC50 [6]: 62.9 nM
- IC50 [7]: 509 nM
- IC50 [12]: 115 nM

Substance: DENV3 NS1 85-99 (peptide)
- IC50 [3]: 483 nM
- IC50 [5]: 55.8 nM
- IC50 [7]: 70.1 nM
- IC50 [13]: 21.2 nM
- IC50 [14]: 807 nM
- IC50 [12]: 87.7 nM
- IC50 [15]: 533 nM
- IC50 [9]: 41.9 nM

Substance: DENV3 NS1 117-131 (peptide)
- IC50 [10]: 695 nM
- IC50 [11]: 285 nM
- IC50 [16]: 534 nM
- IC50 [6]: 56.3 nM
- IC50 [12]: 28.1 nM

Substance: DENV3 NS1 169-183 (peptide)
- IC50 [10]: 457 nM
- IC50 [11]: 277 nM
- IC50 [5]: 226 nM
- IC50 [16]: 747 nM
- IC50 [7]: 136 nM
- IC50 [8]: 878 nM
- IC50 [13]: 441 nM
- IC50 [12]: 474 nM
- IC50 [9]: 650 nM

Substance: DENV3 NS3 237-251 (peptide)
- IC50 [10]: 310 nM
- IC50 [11]: 150 nM
- IC50 [4]: 12.9 nM
- IC50 [6]: 35.8 nM
- IC50 [13]: 638 nM
- IC50 [14]: 807 nM
- IC50 [12]: 13.1 nM
- IC50 [9]: 928 nM

Substance: DENV3 NS3 277-291 (peptide)
- IC50 [11]: 402 nM
- IC50 [3]: 68.2 nM
- IC50 [5]: 383 nM
- IC50 [16]: 4.42 nM
- IC50 [6]: 396 nM
- IC50 [12]: 142 nM
- IC50 [15]: 37.3 nM

Substance: DENV3 NS3 297-311 (peptide)
- IC50 [10]: 127 nM
- IC50 [11]: 90 nM
- IC50 [7]: 77.2 nM
- IC50 [14]: 35.3 nM
- IC50 [12]: 16.4 nM

Substance: DENV3 NS3 309-323 (peptide)
- IC50 [10]: 350 nM
- IC50 [11]: 32.1 nM
- IC50 [5]: 27 nM
- IC50 [6]: 30.8 nM
- IC50 [7]: 47.8 nM
- IC50 [8]: 9.15 nM
- IC50 [13]: 363 nM
- IC50 [12]: 2.36 nM
- IC50 [9]: 129 nM

Substance: DENV3 NS3 353-367 (peptide)
- IC50 [10]: 858 nM
- IC50 [11]: 884 nM
- IC50 [7]: 87.4 nM

Substance: DENV3 NS3 433-447 (peptide)
- IC50 [3]: 23.7 nM
- IC50 [16]: 134 nM
- IC50 [15]: 68.6 nM

Substance: DENV3 NS3_(357–371) (peptide)
- IC50 [2]: < 20 nM

Substance: DENV3 NS5 221-237 (peptide)
- IC50 [10]: 84.3 nM
- IC50 [11]: 25 nM
- IC50 [3]: 65.4 nM
- IC50 [5]: 3.97 nM
- IC50 [6]: 5.83 nM
- IC50 [7]: 20.7 nM
- IC50 [8]: 60.4 nM
- IC50 [13]: 19.9 nM
- IC50 [14]: 30.9 nM
- IC50 [12]: 1.05 nM
- IC50 [15]: 15 nM
- IC50 [9]: 44.9 nM

Substance: DENV3 NS5 233-248 (peptide)
- IC50 [11]: 699 nM
- IC50 [3]: 34 nM
- IC50 [4]: 413 nM
- IC50 [5]: 108 nM
- IC50 [6]: 159 nM
- IC50 [8]: 617 nM
- IC50 [13]: 307 nM
- IC50 [14]: 15.9 nM
- IC50 [12]: 57 nM

Substance: DENV3 NS5 477-493 (peptide)
- IC50 [10]: 124 nM
- IC50 [11]: 54.4 nM
- IC50 [4]: 56.2 nM
- IC50 [5]: 11.7 nM
- IC50 [16]: 25.9 nM
- IC50 [7]: 26.2 nM
- IC50 [8]: 274 nM
- IC50 [12]: 67.1 nM
- IC50 [9]: 78.7 nM

Substance: DENV3 NS5 564-580 (peptide)
- IC50 [3]: 11.3 nM
- IC50 [4]: 305 nM
- IC50 [5]: 18.8 nM
- IC50 [16]: 576 nM
- IC50 [13]: 28 nM
- IC50 [14]: 344 nM
- IC50 [12]: 390 nM
- IC50 [15]: 222 nM
- IC50 [9]: 100 nM

Substance: DENV3 NS5 714-729 (peptide)
- IC50 [3]: 10.6 nM
- IC50 [4]: 245 nM
- IC50 [13]: 66.3 nM
- IC50 [14]: 671 nM
- IC50 [15]: 36.8 nM
- IC50 [9]: 690 nM

Substance: DENV3 NS5 719-735 (peptide)
- IC50 [10]: 190 nM
- IC50 [11]: 22.5 nM
- IC50 [3]: 229 nM
- IC50 [5]: 214 nM
- IC50 [15]: 44.1 nM

Substance: DENV3 NS5 747-763 (peptide)
- IC50 [10]: 111 nM
- IC50 [11]: 38.6 nM
- IC50 [5]: 53.7 nM
- IC50 [13]: 167 nM
- IC50 [9]: 393 nM

Substance: DENV3 NS5 765-779 (peptide)
- IC50 [3]: 4.92 nM
- IC50 [4]: 726 nM
- IC50 [5]: 40.8 nM
- IC50 [16]: 127 nM
- IC50 [6]: 7.85 nM
- IC50 [13]: 118 nM
- IC50 [9]: 61.2 nM

Substance: DENV3 NS5 769-785 (peptide)
- IC50 [10]: 92.6 nM
- IC50 [11]: 15.9 nM
- IC50 [3]: 4.5 nM
- IC50 [4]: 113 nM
- IC50 [5]: 27.9 nM
- IC50 [6]: 27.6 nM
- IC50 [8]: 212 nM
- IC50 [14]: 78.7 nM
- IC50 [12]: 3.61 nM
- IC50 [15]: 409 nM
- IC50 [9]: 61.2 nM

Substance: DENV3 NS5 866-882 (peptide)
- IC50 [3]: 543 nM
- IC50 [6]: 7.14 nM
- IC50 [13]: 148 nM
- IC50 [14]: 421 nM
- IC50 [15]: 178 nM
- IC50 [9]: 66.1 nM

Substance: DENV4 inter-serotype variant of NS3_(399–407) (peptide)
- IC50 [1]: 61 nM
